The values that follow are results of earlier work, collected in article PMC9106955.

The Kd is the equilibrium constant for the complex coming apart.

For this series, the target named is GLP-1R N-terminal domain (UniProt P43220).
Sequence of UniProt P43220 (P43220 24-145): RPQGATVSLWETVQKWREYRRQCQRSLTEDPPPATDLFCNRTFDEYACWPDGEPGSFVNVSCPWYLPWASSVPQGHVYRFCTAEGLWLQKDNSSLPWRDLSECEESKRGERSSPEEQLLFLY

Exendin-4 (from UniProt P26349): the Kd is 6 nM.
